In patent US20220332804A1 (CSL INNOVATION, published 2022):

Tests used:
Assay in all cases: SPR, antibody captured, C2 as analyte;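 further: biacore at 37 °C, anti-C2 mAbs held by immobilised goat anti-human IgG, C2 alanine or serine mutants injected, double-referenced sensorgrams fitted to a 1:1 kinetic or steady-state model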
[1] = molecular target: T1, human C2 N467A (human, UniProt P06681 21-752)
T1 sequence: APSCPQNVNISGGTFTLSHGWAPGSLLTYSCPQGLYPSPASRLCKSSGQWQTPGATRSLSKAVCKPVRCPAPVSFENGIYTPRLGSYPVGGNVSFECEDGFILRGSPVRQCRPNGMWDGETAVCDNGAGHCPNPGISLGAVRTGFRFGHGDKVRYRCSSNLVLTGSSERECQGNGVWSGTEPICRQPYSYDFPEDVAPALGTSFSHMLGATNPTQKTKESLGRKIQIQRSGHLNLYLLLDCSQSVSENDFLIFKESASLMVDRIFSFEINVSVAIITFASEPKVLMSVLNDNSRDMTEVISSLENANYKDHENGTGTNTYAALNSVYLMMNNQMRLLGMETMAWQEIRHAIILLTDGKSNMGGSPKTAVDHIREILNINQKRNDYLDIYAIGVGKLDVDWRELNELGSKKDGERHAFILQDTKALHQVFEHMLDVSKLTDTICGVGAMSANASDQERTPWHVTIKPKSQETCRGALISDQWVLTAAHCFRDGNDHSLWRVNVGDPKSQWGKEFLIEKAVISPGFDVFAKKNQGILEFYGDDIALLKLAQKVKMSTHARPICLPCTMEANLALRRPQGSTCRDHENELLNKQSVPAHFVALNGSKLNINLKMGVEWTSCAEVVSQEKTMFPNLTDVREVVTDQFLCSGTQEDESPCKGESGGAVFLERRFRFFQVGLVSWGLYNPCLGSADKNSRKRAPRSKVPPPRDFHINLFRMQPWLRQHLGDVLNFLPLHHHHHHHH
Description: (§1) Surface plasmon resonance (SPR, Biacore) was used for all binding affinity analyses. In brief, goat anti-human IgG was directly immobilised onto the carboxymethyl dextran surface of CM5 sensorchips to approximately 12,000 RU using standard NHS/EDC chemistry at pH 5. The immobilised antibody surface was pre-conditioned with ten injections of polyclonal human IgG (Privigen 60 s) prepared at 1 μg/mL. Ligands (anti-C2 mAbs) were captured at the beginning of each cycle as described below. An adjacent spot or flow cell in which only Polyclonal IgG was capture was used as a reference surface. The goat anti-human IgG Fc antibody surface was regenerate in 100 mM H3PO4, injected for 45 seconds at the end of each cycle. Experiments were performed at 37° C. and the flow rate of each experiment was kept constant at 30 μL/min.
(§2) Sensogram data was double-referenced against a reference anti-IgG surface (i.e. minus anti-C2 mAb) and blank buffer injections obtained within each experiment. The binding data was fit to 1:1 (kinetic or steady-state) model using local Rmax and null refraction index (RI=0) when appropriate. Buffers and solutions were filtered (0.22 μm) prior to use.

[2] = molecular target: T2, human C2 E433A (human, UniProt P06681 21-752)
T2 sequence: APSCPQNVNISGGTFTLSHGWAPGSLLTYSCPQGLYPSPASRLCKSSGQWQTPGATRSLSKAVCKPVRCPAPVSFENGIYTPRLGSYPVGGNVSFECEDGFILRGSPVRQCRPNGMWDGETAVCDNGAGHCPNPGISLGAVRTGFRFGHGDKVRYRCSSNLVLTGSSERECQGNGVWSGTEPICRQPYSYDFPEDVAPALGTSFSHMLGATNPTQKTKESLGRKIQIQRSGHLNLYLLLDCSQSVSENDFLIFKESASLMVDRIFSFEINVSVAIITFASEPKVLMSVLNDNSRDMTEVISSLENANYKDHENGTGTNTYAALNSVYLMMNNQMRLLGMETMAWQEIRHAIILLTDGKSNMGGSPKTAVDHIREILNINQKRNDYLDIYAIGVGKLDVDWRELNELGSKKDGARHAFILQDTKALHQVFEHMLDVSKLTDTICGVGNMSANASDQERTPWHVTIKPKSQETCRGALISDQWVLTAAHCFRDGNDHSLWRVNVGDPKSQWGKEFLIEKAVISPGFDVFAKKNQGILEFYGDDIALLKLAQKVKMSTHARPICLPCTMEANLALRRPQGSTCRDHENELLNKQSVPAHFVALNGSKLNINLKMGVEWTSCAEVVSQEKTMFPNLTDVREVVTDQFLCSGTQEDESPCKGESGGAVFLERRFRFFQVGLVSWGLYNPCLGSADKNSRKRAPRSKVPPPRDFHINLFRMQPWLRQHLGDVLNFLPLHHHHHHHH
Description: as §1, §2

[3] = molecular target: T3, human C2 N380A (human, UniProt P06681 21-752)
T3 sequence: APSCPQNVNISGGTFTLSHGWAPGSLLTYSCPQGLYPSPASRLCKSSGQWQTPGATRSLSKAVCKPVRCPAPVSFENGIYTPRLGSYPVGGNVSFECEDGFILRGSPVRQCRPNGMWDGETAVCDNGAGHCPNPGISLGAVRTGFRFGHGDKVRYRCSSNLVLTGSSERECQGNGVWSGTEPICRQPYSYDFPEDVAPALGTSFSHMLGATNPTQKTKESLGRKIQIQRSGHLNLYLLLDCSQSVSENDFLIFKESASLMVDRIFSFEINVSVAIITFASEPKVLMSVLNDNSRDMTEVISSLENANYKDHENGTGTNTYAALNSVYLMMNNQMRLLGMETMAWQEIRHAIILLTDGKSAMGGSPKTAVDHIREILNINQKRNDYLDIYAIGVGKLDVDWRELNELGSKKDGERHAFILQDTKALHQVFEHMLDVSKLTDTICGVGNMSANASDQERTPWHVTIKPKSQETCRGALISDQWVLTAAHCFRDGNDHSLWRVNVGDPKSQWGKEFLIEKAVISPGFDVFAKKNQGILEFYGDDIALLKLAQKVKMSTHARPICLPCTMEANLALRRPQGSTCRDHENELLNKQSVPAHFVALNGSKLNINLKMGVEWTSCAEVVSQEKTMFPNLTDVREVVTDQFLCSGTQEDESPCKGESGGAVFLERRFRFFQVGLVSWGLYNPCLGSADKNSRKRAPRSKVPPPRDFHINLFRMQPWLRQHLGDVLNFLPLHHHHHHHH
Description: as §1, §2

[4] = molecular target: T4, human C2 I272A (human, UniProt P06681 21-752)
T4 sequence: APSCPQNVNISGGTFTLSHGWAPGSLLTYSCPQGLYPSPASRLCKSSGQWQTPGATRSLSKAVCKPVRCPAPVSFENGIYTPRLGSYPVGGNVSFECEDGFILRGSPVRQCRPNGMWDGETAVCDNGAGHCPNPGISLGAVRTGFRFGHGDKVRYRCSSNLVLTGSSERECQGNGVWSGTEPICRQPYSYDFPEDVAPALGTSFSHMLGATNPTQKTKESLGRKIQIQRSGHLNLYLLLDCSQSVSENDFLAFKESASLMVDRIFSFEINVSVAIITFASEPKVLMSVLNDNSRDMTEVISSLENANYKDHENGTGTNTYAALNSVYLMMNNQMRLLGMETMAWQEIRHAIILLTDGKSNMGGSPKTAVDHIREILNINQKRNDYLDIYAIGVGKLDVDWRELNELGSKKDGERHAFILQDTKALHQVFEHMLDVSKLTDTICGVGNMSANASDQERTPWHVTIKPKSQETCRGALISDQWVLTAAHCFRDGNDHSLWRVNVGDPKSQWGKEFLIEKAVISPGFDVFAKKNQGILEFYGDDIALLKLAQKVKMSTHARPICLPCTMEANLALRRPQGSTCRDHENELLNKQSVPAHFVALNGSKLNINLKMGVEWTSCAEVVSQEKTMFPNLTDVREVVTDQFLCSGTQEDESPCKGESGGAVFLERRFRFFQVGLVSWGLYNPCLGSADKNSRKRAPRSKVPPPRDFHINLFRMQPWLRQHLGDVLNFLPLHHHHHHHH
Description: as §1, §2

B1: RF16-242 (antibody, human IgG4 S228P, lambda, V domains shown)
VH: EVQLLQSGAEVKKPGESLKISCKGSGYSFTSYWIGWVRQMPGKGLEWMGIIYPGDSDTRYSPSFQGQVTISADKSISTAYLQWSSLKASDTAMYYCARRGHYGDYFDYWGQGTLVTVSS
VL: SYELTQPPSVSVSPGQTARITCSGDALPKKYAYWYHQKSGQAPVLVIYEDRRRPSEIPERFSGSSSGTMATLTITGAQVEDEGVYFCYSRDRAGNQRVFGGGTQLTVLG
notes: pH-dependent anti-C2 antibody from a phage display library
For B1, which Kd [1] is on record?
The Kd was 0.0134 µM.

What about the Kd [2] of the same binder?
Its Kd is 0.003 µM.

What about the Kd [3] of the same binder?
The Kd was 0.0102 µM.

What about the Kd [4] of the same binder?
Its Kd is 0.0103 µM.
